Biological target: gastric inhibitory polypeptide (GIP), species not stated
Test: modified Schild's assay plot, reporter cell line expressing GIP receptors

Chain of gastric inhibitory polypeptide (GIP), species not stated (P09681 52-93): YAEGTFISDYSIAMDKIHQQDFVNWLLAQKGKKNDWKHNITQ

| Binder | Kd |
| --- | --- |
| 10g10 monoclonal antibody (original mouse mAb from hybridoma 10g10) (antibody, V domains shown, Mouse antibody from a hybridoma; also called 10g10 mAb; 10g10 GIP mAb) VH: QVQLQESGAELVRSGASVKLSCTASGFNIRDYYLHWIKQRPEQGLEWIGWIDPENGDTEYAPKFQDKATVTADTSSNTAYLQLNSLTSEDTAVYYCNVYGIYFMDYWGQGTTVTVSS VL: DIQLTQSPSTMAASPGEKITITCSASSSISSNSLHWYQQKPGFSPKLLIYRTSNLASGVPGRFSGSGSGTSYSLTIGTMETEDVATYYCQQGSSFPRMLTFGTGTKLEIKR | 3200 nM |
| LC2/HC2 humanized antibody (antibody, V domains shown, CHO supernate in the ELISA; Protein A purified in the neutralization assay; also called mAbH; GIP mAbH) VH: QVQLVQSGAEVKKPGATVKISCKASGFNIRDYYLHWVQQAPGKGLEWMGWIDPENGDTEYAPKFQGRVTITADTSTNTAYMELSSLRSEDTAVYYCNVYGIYFMDYWGQGTMVTVSS VL: DIQLTQSPSSVSASVGDRVTITCRASSSISSNSLHWYQQKPGKAPKLLIYRTSNLQSGVPSRFSGSGSGTDYTLTISSLQPEDFATYYCQQGSSFPRMLTFGQGTKLEIKR | 2200 nM |
